According to US20190170753A1 (ICAHN SCHOOL OF MEDICINE AT MOUNT SINAI, published 2019):
Where no end group is shown, it is not given here.

Assays:
[1] = target: T1, Mut6T110S biotin labeled HCV core peptide (hepatitis C virus, biotin labeled (position not given)); experiment: capture EIA; Ab 7.813 ng/mL; bt-peptide 500 ng/mL
[2] = target: T2, WT1STHV biotin labeled HCV core peptide (hepatitis C virus, biotin labeled (position not given)); experiment: capture EIA; Ab 7.813 ng/mL; bt-peptide 500 ng/mL
T2 peptide: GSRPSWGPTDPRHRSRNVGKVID

[3] = target: T3, C113T109N biotin labeled HCV core peptide (hepatitis C virus, also: biotin labeled, position not given here); experiment: capture EIA; Ab 7.813 ng/mL; bt-peptide 500 ng/mL
T3 construct: also called C113T110N
T3 peptide: RGSRPSWGPND

[4] = target: T4, C113WT biotin labeled HCV core peptide (hepatitis C virus, also: biotin labeled, position not given here); experiment: capture EIA; Ab 7.813 ng/mL; bt-peptide 500 ng/mL
T4 peptide: RGSRPSWGPTD

[5] = target: T5, 92-133 biotin labeled HCV core peptide (hepatitis C virus, UniProt Q9WMX2 92-133, chain 1: biotin label (bt-pep). Its position and any spacer are not visible in the passages shown.); experiment: capture EIA; Ab 7.813 ng/mL; bt-peptide 500 ng/mL
T5 construct: Only the label 92-133 is printed
T5 peptide: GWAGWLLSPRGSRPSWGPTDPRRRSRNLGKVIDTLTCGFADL
Method: (§1) Assay wells were coated with sheep anti-mouse IgG Fc specific antibody and incubated overnight. The coating solution was then removed; the wells blocked using BSA/tween in PBS and then washed with dH2O. […] Next, biotin labeled peptides (diluted to 500 ng/mL in block) were added, the plates incubated for 10 minutes while shaking at 700 rpm and then washed. Peroxidase conjugated streptavidin (diluted to 200 ng/mL in block) was then added to all assay wells, incubated for 20 minutes while shaking at 700 rpm and then washed. Finally, color was developed using OPD and signal quenched using 1N H₂SO₄. Signal was read at 492 nm.

[6] = target: T6, Mut1T110N biotin labeled HCV core peptide (hepatitis C virus, biotin labeled (position not given)); experiment: capture EIA; Ab 7.813 ng/mL; bt-peptide 500 ng/mL
T6 peptide: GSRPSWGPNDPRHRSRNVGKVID

[7] = target: T1, Mut6T110S biotin labeled HCV core …; experiment: capture EIA; Ab 500 ng/mL; bt-peptide 500 ng/mL
Method: as §1

[8] = target: T2, WT1STHV biotin labeled HCV core peptide; experiment: capture EIA; Ab 500 ng/mL; bt-peptide 500 ng/mL
Method: as §1

[9] = target: T3, C113T109N biotin labeled HCV core …; experiment: capture EIA; Ab 500 ng/mL; bt-peptide 500 ng/mL
Method: as §1

[10] = target: T4, C113WT biotin labeled HCV core peptide; experiment: capture EIA; Ab 500 ng/mL; bt-peptide 500 ng/mL
Method: as §1

[11] = target: T5, 92-133 biotin labeled HCV core peptide; experiment: capture EIA; Ab 500 ng/mL; bt-peptide 500 ng/mL
Method: as §1

[12] = target: T6, Mut1T110N biotin labeled HCV core …; experiment: capture EIA; Ab 500 ng/mL; bt-peptide 500 ng/mL
Method: as §1

HCV core peptide 25 = target: T7, HCV core peptide 25 (hepatitis C virus, N-terminal biotin; C-terminal amide); experiment: peptide EIA, 2 ug/mL IgG;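 further: purified mouse IgG binding to individually well-coated synthetic peptides, detected with peroxidase anti-mouse IgG Fc and o-phenylenediamine, IgG incubated at least 1 h at room temperature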
T7 construct: range 49-63
Method: (§2) The coated plates were kept dry in a sealed foil pouch and stored at <10 degrees C. until ready for use. A peptide coated plate for each test antibody was blocked using 3% BSA in PBS with 0.5% Tween 20. The blocked plates were washed with distilled water and a 2 ug/mL solution of purified IgG from each test sample diluted in BSA block solution was added to each peptide coated well of the blocked plate and allowed to incubate at room temperature for at least one hour. Following incubation the plates were washed with distilled water. A 200 ng/mL solution of peroxidase labeled F(ab′)2 fragment goat anti-mouse IgG Fc fragment specific (Jackson Immunoresearch) in BSA block solution was added to all wells and incubated at room temperature for 30 minutes. The plates were washed with distilled water and o-phenylenediamine substrate was used as the chromagen to generate signal. Plates were read at 492 nm and the results were analyzed.

HCV core peptide 54 = target: T8, HCV core peptide 54 (hepatitis C virus, HELM PEPTIDE1{[O=C1N[C@H]2[C@H](CS[C@H]2CCCCC(=O)[*:2])N1].S.G.S.G.W.G.P.T.D.P.R.R.R.S.R.N.L.G.K.[am]}$$$$V2.0; SMILES …); experiment: peptide EIA, 2 ug/mL IgG;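 further: purified mouse IgG binding to individually well-coated synthetic peptides, detected with peroxidase anti-mouse IgG Fc and o-phenylenediamine, IgG incubated at least 1 h at room temperature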
T8 peptide: SGSGWGPTDPRRRSRNLGK
Method: as §2

HCV core peptide 44 = HCV core peptide 44 (hepatitis C virus, N-terminal biotin; C-terminal amide); experiment: peptide EIA, 2 ug/mL IgG;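 further: purified mouse IgG binding to individually well-coated synthetic peptides, detected with peroxidase anti-mouse IgG Fc and o-phenylenediamine, IgG incubated at least 1 h at room temperature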
Method: as §2

HCV core peptide 46 = HCV core peptide 46 (hepatitis C virus, N-terminal biotin; C-terminal amide); experiment: peptide EIA, 2 ug/mL IgG;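 further: purified mouse IgG binding to individually well-coated synthetic peptides, detected with peroxidase anti-mouse IgG Fc and o-phenylenediamine, IgG incubated at least 1 h at room temperature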
Method: as §2

HCV core peptide 75 = target: T9, HCV core peptide 75 (hepatitis C virus, N-terminal biotin; C-terminal amide); experiment: peptide EIA, 2 ug/mL IgG
T9 construct: range 149-163
Method: as §2

HCV core peptide 31 = target: T10, HCV core peptide 31 (hepatitis C virus, N-terminal biotin; C-terminal amide); experiment: peptide EIA, 2 ug/mL IgG
T10 construct: range 61-75
Method: as §2

[13] = target: T1, Mut6T110S biotin labeled HCV core …; experiment: capture EIA; Ab 31.25 ng/mL; bt-peptide 500 ng/mL
Method: as §1

[14] = target: T2, WT1STHV biotin labeled HCV core peptide; experiment: capture EIA; Ab 31.25 ng/mL; bt-peptide 500 ng/mL
Method: as §1

[15] = target: T3, C113T109N biotin labeled HCV core …; experiment: capture EIA; Ab 31.25 ng/mL; bt-peptide 500 ng/mL
Method: as §1

[16] = target: T4, C113WT biotin labeled HCV core peptide; experiment: capture EIA; Ab 31.25 ng/mL; bt-peptide 500 ng/mL
Method: as §1

[17] = target: T5, 92-133 biotin labeled HCV core peptide; experiment: capture EIA; Ab 31.25 ng/mL; bt-peptide 500 ng/mL
Method: as §1

[18] = target: T6, Mut1T110N biotin labeled HCV core …; experiment: capture EIA; Ab 31.25 ng/mL; bt-peptide 500 ng/mL
Method: as §1

HCV core peptide 49 = target: T11, HCV core peptide 49 (hepatitis C virus, HELM PEPTIDE1{[O=C1N[C@H]2[C@H](CS[C@H]2CCCCC(=O)[*:2])N1].S.G.S.G.L.L.S.P.R.G.S.R.P.S.W.G.P.T.D.[am]}$$$$V2.0; SMILES …); experiment: peptide EIA, 2 ug/mL IgG (summary table)
T11 peptide: SGSGLLSPRGSRPSWGPTD
Method: as §2

B1: Neo4 mouse monoclonal antibody (antibody, V domains shown)
VH: QIQLKESGPAVIKPSQSLSLTCIVSGFSITSSVYCWQWIRQPPGKGLEWMGRICYDGSVDYSPSITSRGTISRDTSLNKVFFQLSSVTNEDTAMYYCSRENHIDYYDTTYPSFDVWGAGTTVTVSS
VL: DIVLTQSPASLIVSLGQRATISCRASKSVNEYGYTYMHWYQQKPGLPPKLLIYLASNLDSGVPARFSGSGSGTDFTLNIHPVEEEDAATYYCQHSRELPYTFGGGTKLEIKR
notes: Mouse hybridoma antibody, isotype IgG1, purified with Protein G; also called HCV Neo4
- signal at 492 nm [1]: 0.132 A492
- signal at 492 nm [2]: 1.04 A492
- signal at 492 nm [3]: 0.0751 A492
- signal at 492 nm [4]: 0.0731 A492
- signal at 492 nm [5]: 0.45 A492
- signal at 492 nm [6]: 0.0729 A492
- signal at 492 nm [7]: 1.17 A492
- signal at 492 nm [8]: 1.91 A492
- signal at 492 nm [9]: 0.0803 A492
- signal at 492 nm [10]: 0.0561 A492
- signal at 492 nm [11]: 1.48 A492
- signal at 492 nm [12]: 0.065 A492
- OD (A492 nm) (HCV core peptide 25): 0.04 OD
- OD (A492 nm) (HCV core peptide 54): 1.01 OD
- OD (A492 nm) (HCV core peptide 44): 0.05 OD
- OD (A492 nm) (HCV core peptide 46): 0.06 OD
- OD (A492 nm) (HCV core peptide 75): 0.1 OD
- OD (A492 nm) (HCV core peptide 31): 0.05 OD
- signal at 492 nm [13]: 0.48 A492
- signal at 492 nm [14]: 1.67 A492
- signal at 492 nm [15]: 0.0815 A492
- signal at 492 nm [16]: 0.0622 A492
- signal at 492 nm [17]: 1.11 A492
- signal at 492 nm [18]: 0.0938 A492
- OD (A492 nm) (HCV core peptide 49): 0.05 OD
